Assay [1] concerns the target HLA-A*02:01. Nature of the assay: IEDB peptide-MHC binding, purified MHC/direct/fluorescence; filed as Kd, often an IC50 or EC50 that approximates it; ≥ and ≤ were set here for values at or beyond the usual limits of such assays.
Another assay concerns the target HLA-B*15:01. The description is as above.
Another assay has as its target HLA-B*58:01. Described as above.
The target in a further assay is HLA-B*40:01. Described as above.
The target of another assay is HLA-A*26:03. The description is as above. Particulars: source organism: Brucella suis 1330.
Assay [2] concerns the target HLA-A*11:01. Described as above.
The target in assay [3] is HLA-B*46:01. The assay is described as above. Particulars: source organism: Brucella abortus.
Assay [4] deals with HLA-A*68:02. The description is as above. Particulars: source organism: Brucella abortus.
Another assay deals with HLA-B*48:01. Described as above. Particulars: source organism: Brucella abortus.
In assay [5] the target is HLA-A*01:01. Described as above.
The target of assay [6] is HLA-A*03:01. The assay is described as above.
A further assay has as its target HLA-B*27:05. The description is as above.
Assay [7] has as its target HLA-A*31:01. The assay is described as above. Particulars: source organism: Brucella abortus.
The target of a further assay is HLA-B*57:01. Described as above. Particulars: source organism: Brucella abortus.
Assay [8] deals with HLA-B*07:02. The description is as above.
A further assay deals with HLA-B*15:17. Nature of the assay: IEDB peptide-MHC binding, purified MHC/competitive/fluorescence; filed as Kd, often an IC50 or EC50 that approximates it; ≥ and ≤ were set here for values at or beyond the usual limits of such assays. Particulars: source organism: Brucella abortus S19.
The target of assay [9] is HLA-A*26:02. The assay is described as above.
The next assay has as its target HLA-A*26:01. Nature of the assay: IEDB peptide-MHC binding, purified MHC/direct/fluorescence; filed as Kd, often an IC50 or EC50 that approximates it; ≥ and ≤ were set here for values at or beyond the usual limits of such assays.
The target in another assay is HLA-A*69:01. The description is as above. Particulars: source organism: Pseudomonas putida.
In the next assay the target is HLA-A*30:01. The assay is described as above. Particulars: source organism: Pseudomonas putida.
Assay [10] has as its target HLA-B*08:01. The description is as above. Particulars: source organism: Pseudomonas putida.
A further assay concerns the target HLA-B*73:01. Nature of the assay: IEDB peptide-MHC binding, purified MHC/competitive/fluorescence; filed as Kd, often an IC50 or EC50 that approximates it; ≥ and ≤ were set here for values at or beyond the usual limits of such assays. Particulars: source organism: Pseudomonas putida.
In a further assay the target is HLA-C*07:02. Nature of the assay: IEDB peptide-MHC binding, purified MHC/direct/fluorescence; filed as Kd, often an IC50 or EC50 that approximates it; ≥ and ≤ were set here for values at or beyond the usual limits of such assays.
The target of assay [11] is HLA-A*26:02. The assay is described as above.
The next assay addresses HLA-C*03:03. Described as above. Particulars: source organism: Mycobacterium tuberculosis C.
The target in assay [12] is HLA-B*46:01. Nature of the assay: IEDB peptide-MHC binding, purified MHC/competitive/fluorescence; filed as Kd, often an IC50 or EC50 that approximates it; ≥ and ≤ were set here for values at or beyond the usual limits of such assays. Particulars: source organism: Mycobacterium tuberculosis C.
In a further assay the target is HLA-C*15:02. Nature of the assay: IEDB peptide-MHC binding, purified MHC/direct/fluorescence; filed as Kd, often an IC50 or EC50 that approximates it; ≥ and ≤ were set here for values at or beyond the usual limits of such assays. Particulars: source organism: Homo sapiens.
The target in the next assay is HLA-C*14:02. The assay is described as above.
Another assay has as its target HLA-A*29:02. Nature of the assay: IEDB peptide-MHC binding, purified MHC/competitive/fluorescence; filed as Kd, often an IC50 or EC50 that approximates it; ≥ and ≤ were set here for values at or beyond the usual limits of such assays. Particulars: source organism: Homo sapiens.
The target of assay [13] is HLA-A*01:01. The assay is described as above. Particulars: source organism: Homo sapiens.
Another assay concerns the target HLA-A*80:01. Nature of the assay: IEDB peptide-MHC binding, purified MHC/direct/fluorescence; filed as Kd, often an IC50 or EC50 that approximates it; ≥ and ≤ were set here for values at or beyond the usual limits of such assays. Particulars: source organism: West Nile virus.
Assay [14] deals with HLA-B*07:02. Nature of the assay: IEDB peptide-MHC binding, purified MHC/competitive/fluorescence; filed as Kd, often an IC50 or EC50 that approximates it; ≥ and ≤ were set here for values at or beyond the usual limits of such assays. Particulars: source organism: Influenza A virus (A/Memphis/1/1978(H1N1)).
Assay [15] deals with HLA-A*11:01. Described as above. Particulars: source organism: Robiginitalea biformata HTCC2501.
In assay [16] the target is HLA-A*03:01. The description is as above. Particulars: source organism: Robiginitalea biformata HTCC2501.
In assay [17] the target is HLA-A*31:01. Described as above. Particulars: source organism: Robiginitalea biformata HTCC2501.
Assay [18] deals with HLA-A*02:01. The description is as above.
The target of another assay is HLA-A*02:06. The assay is described as above. Particulars: source organism: Human immunodeficiency virus 1.
The target in the next assay is HLA-A*02:03. The description is as above. Particulars: source organism: Human immunodeficiency virus 1.
For assay [19], the target named is HLA-A*68:02. The description is as above. Particulars: source organism: Human immunodeficiency virus 1.
Assay [20] concerns the target HLA-B*08:01. Nature of the assay: IEDB peptide-MHC binding, purified MHC/competitive/radioactivity; filed as Kd, often an IC50 or EC50 that approximates it; ≥ and ≤ were set here for values at or beyond the usual limits of such assays. Particulars: source organism: Vaccinia virus WR.
The target of the next assay is HLA-C*12:03. Nature of the assay: IEDB peptide-MHC binding, purified MHC/direct/fluorescence; filed as Kd, often an IC50 or EC50 that approximates it; ≥ and ≤ were set here for values at or beyond the usual limits of such assays. Particulars: source organism: Vaccinia virus.
[21] abbreviates: source organism: Brucella abortus.
[22] abbreviates: source organism: Pseudomonas putida.
[23] abbreviates: source organism: West Nile virus.
[24] abbreviates: source organism: Human immunodeficiency virus 1.
The mark [25] stands for this setting: source organism: Vaccinia virus.

pKd: −log10 of the molar value.

In general, pKd refers to the negative decadic logarithm of the Kd, by convention in mol/L. As for RFRCVGPAP, the pKd with HLA-A*02:01 [1] (setting [21]), in the assay with HLA-B*15:01 (setting [21]), in the assay with HLA-B*58:01 (setting [21]), with HLA-B*40:01 (setting [21]), with HLA-A*26:03 and with HLA-A*11:01 [2] (setting [21]) was ≤ 4.70 throughout. For the same sequence, the pKd with HLA-B*46:01 [3], with HLA-A*68:02 [4], with HLA-B*48:01, with HLA-A*01:01 [5] (setting [21]), in the assay with HLA-A*03:01 [6] (setting [21]) and in the assay with HLA-B*27:05 (setting [21]) was ≤ 4.70 each time. Besides, the pKd with HLA-A*31:01 [7], in the assay with HLA-B*57:01, in the assay with HLA-B*07:02 [8] (setting [21]), with HLA-B*15:17 and with HLA-A*26:02 [9] (source organism: Brucella abortus S19) was ≤ 4.70 throughout.

Regarding RVWRGEQGK, the pKd in the assay with HLA-A*02:01 [1] (setting [22]), in the assay with HLA-B*15:01 (setting [22]), in the assay with HLA-B*58:01 (setting [22]), with HLA-B*40:01 (setting [22]), with HLA-A*26:01 (setting [22]) and with HLA-A*69:01 was ≤ 4.70 throughout. Besides, the negative-log Kd (pKd) with HLA-A*11:01 [2] (setting [22]) was 7.26; in the assay with HLA-A*30:01, 7.35; with HLA-A*01:01 [5] (setting [22]) it was ≤ 4.70; with HLA-A*03:01 [6] (setting [22]), 6.61; with HLA-B*27:05 (setting [22]) it was 5.12; with HLA-B*08:01 [10], ≤ 4.70. In addition, the negative-log Kd (pKd) in the assay with HLA-B*07:02 [8] (setting [22]) and in the assay with HLA-B*73:01 was ≤ 4.70 throughout.

On to YVFYDGPPF, for which the pKd with HLA-C*07:02 (source organism: Mycobacterium tuberculosis C) is 7.68; with HLA-A*26:02 [11] (source organism: Mycobacterium tuberculosis str. Haarlem), 7.96; in the assay with HLA-C*03:03 it was 8.00; with HLA-B*46:01 [12] it was 6.90.

Take HMMAVTLFY: the pKd with HLA-C*15:02 was 5.33; with HLA-C*14:02 (source organism: Homo sapiens) it was 6.29; in the assay with HLA-A*29:02, 9.70; in the assay with HLA-A*01:01 [13], 7.24.

On to ATPENAAAL, for which the negative logarithm of the Kd (pKd) with HLA-C*14:02 (source organism: Mycobacterium tuberculosis variant bovis BCG str. Pasteur 1173P2) is 6.75.

Consider LTKEEFTRY, for which the pKd is 5.97 with HLA-A*26:01 (setting [23]), 6.55 with HLA-A*26:02 [11] (setting [23]), 5.94 with HLA-A*01:01 [5] (setting [23]) and 6.26 in the assay with HLA-A*80:01.

Consider DPLVVAASI, for which, in the assay with HLA-B*07:02 [14], the pKd was ≤ 4.70.

Turning to PLAKGLFHK, the negative logarithm of the Kd (pKd) with HLA-A*11:01 [15] was 5.62; with HLA-A*03:01 [16], 5.17; with HLA-A*31:01 [17] it was ≤ 4.70.

In the case of EELKSLFNTV, the pKd in the assay with HLA-A*02:01 [18] (setting [24]) was 5.78; with HLA-A*02:06, 6.29; with HLA-A*02:03, ≤ 4.70; in the assay with HLA-A*68:02 [19] it was 6.49; with HLA-A*26:02 [9] (setting [24]) it was 5.97.

With VVAANRSAF, in the assay with HLA-C*14:02 (source organism: Mycobacterium tuberculosis CDC1551), the pKd is 6.99.

For LLYAHINAL, the pKd with HLA-B*08:01 [20] is 8.86; with HLA-C*07:02 (setting [25]), 6.67; with HLA-C*12:03, 6.65; with HLA-A*02:01 [18] (setting [25]), 8.80.
